This note sets out measurements from PMC7785020, “A unique hormonal recognition feature of the human glucagon-like peptide-2 receptor” (Cell Research, 2020).

Assay in all cases: radioligand binding; competition on transiently transfected COS-7 cells: unlabeled GLP-2(1–33) 0.1 nM to 1 μM against 10–15 pM [125I]GLP-2(1–33, M10Y); 4 h, 4 °C; 50 mM HEPES pH 7.4, 1 mM CaCl2, 5 mM MgCl2, 0.5% BSA; three-parameter logistic fit
Assay [1] has as its target GLP-2R K414^7.35 A (human) (UniProt O95838).
In assay [2] the target is GLP-2R N247^ECL1A (human) (UniProt O95838).
For assay [3], the target named is GLP-2R N334^ECL2 A (human) (UniProt O95838).
Chain of GLP-2R N334^ECL2 A (human) (O95838 whole entry N334A): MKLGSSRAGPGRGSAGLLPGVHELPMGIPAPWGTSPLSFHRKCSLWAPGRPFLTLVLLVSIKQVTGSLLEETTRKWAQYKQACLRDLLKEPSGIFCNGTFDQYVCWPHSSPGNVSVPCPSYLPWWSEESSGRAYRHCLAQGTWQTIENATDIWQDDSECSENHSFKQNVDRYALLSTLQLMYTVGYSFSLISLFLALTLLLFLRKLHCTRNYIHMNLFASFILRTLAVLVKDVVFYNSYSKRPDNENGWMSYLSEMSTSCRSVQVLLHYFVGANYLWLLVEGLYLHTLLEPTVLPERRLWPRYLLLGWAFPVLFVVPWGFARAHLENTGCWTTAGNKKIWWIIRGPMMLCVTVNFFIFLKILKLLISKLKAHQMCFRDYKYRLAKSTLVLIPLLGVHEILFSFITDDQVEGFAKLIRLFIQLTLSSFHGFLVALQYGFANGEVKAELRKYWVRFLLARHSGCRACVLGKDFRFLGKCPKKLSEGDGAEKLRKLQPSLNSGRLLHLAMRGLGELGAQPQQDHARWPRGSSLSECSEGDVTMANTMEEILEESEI
Assay [4] has as its target GLP-2R R242^ECL1A (human) (UniProt O95838).
The target of assay [5] is GLP-2R W249^ECL1A (human) (UniProt O95838).
Assay [6] addresses GLP-2R W340^5.36A (human) (UniProt O95838).
Assay [7] addresses GLP-2R Y252^ECL1A (human) (UniProt O95838).

Chain of GLP-2R Y252^ECL1A (human) (O95838 whole entry Y252A): as the sequence (O95838 whole entry N334A) above, with Y252A, A334N counted along it
Chain of GLP-2R K414^7.35 A (human) (O95838 whole entry K414A): as the sequence (O95838 whole entry N334A) above, with A334N, K414A counted along it
Chain of GLP-2R R242^ECL1A (human) (O95838 whole entry R242A): as the sequence (O95838 whole entry N334A) above, with R242A, A334N counted along it

As for [^125I]GLP-2(1–33, M10Y) (peptide), the % Binding of WT worked out at 15.2% in assay [1]; 131% in assay [2]; 2.4% in assay [3]; 4.2% in assay [4]; 2.2% in assay [5]; 7.3% in assay [6]. For the same substance, in assay [7], the % Binding of WT is 8.3%.
